# Test: soluble on expression in E. coli; label from the status in PepcDB or PDB records
row,Sequence,soluble on expression in E. coli
1,MKNERIEKLQESWELDTRWKGITRPYSAEDVIRLRGSIDIEHTLARRGAEKLWASLHTEDYINALGALTGNQAMQQVKAGLKAIYLSGWQVAADANLSGHMYPDQSLYPANSVPAVVKRINQTLQRADQIQHMEGSGDTDYFVPIVADAEAGFGGQLNVFELMKGMIEAGASGVHFEDQLSSEKKCGHLGGKVLLPTQTAVRNLISARLAADVMGVPTIIVARTDADAADLITSDIDPVDKAFITGERTPEGFYRTKAGLDQAIARGLAYAPYADLVWCETSEPNLEDAKRFADAIHKEHPGKLLAYNCSPSFNWKQKLDEKTIASFQKEIASYGYKFQFVTLAGFHSLNYGMFELARGYKERGMAAYSELQQAEFAAEKHGYSATRHQREVGTGYFDEVAQVITGGTSSTTALKGSTEEAQFTK,not soluble
2,MKKALSLLTVSALSIGMLSACGPKDSGKKEESKAKKDYDLLVWEDDKKGVGLEPAVKSFEEKYKVKVKVVEMQMTDQVKKLRLDGPAGTGPDVVTLPHDQIGNAVTEGLLSEVKADDAVKSKFTDSSIEAQTYNGKLYGLPKAIETPVFIYNKKLMPKAPETMDELFNFSKEFTKDGKYGFLALGDNFYFANAFMAGMGGYVFGEKDGKPNASDVGLNNSGAVQGAEYLQKWYKEKLFPKGIIGESGGPAADGLFNEGKAASIMNGPWAFQAMEKNGIDYGVAPMPKLPNGQPLKTFVGVKGWHVTSFSKQNDLATKFTEWVTNEENAKIRFEKTKEIPPVKAVMEDPIIKDNEAAKAVATQSENGIPMPNIPEMQEVWKPAGDALQLVVTDKEAPKAALDSAVKQIKGNIEANHSKQK,not soluble
3,MGSDKIHHHHHHMNTITPISTRRVTLALQGGGSHGAFTWGVLDRLLEEPRLRIEAVSGTSAGAMNAACLAHGLADSGRQGARDTLERFWTAISNAAAFSPIRRSPLAIWLGNWSVADSMGYLMSTAFGRALSPYQSNPLNINPLRETVERIIDFDAVRACRDLSLFVTATNVHTGRPRIFTREDLSVDAVLASACLPHLFQAVEIDGVPYWDGGYVGNPALWPLIYETDVRDLLLVRINPLIREQTPMTGLEIADRLNEITFNASMFREMRAIAFVGRMLDEGSLDPERYKRMLIHAIEAEDDLKSLGASSKLNAELPFLFHLRDIGRRAADDWLTKNLEKIGYESTVDVASAYL,not soluble
4,MPFKPLVTAGIEGLLNTFLYRSPALKSARTRLQGKVLCVKLKGFSMPLVLVFSERQVDVLGAWEGEADCTVITQASVLPKLRDRQQLATLIRSGELEVQGDIQVVQNFVALADLAEFDPAELLAPYTGDIAAESIGKVVRGGAKFLRHGFQRQQRYAAEAITEEWRMAPGPLEVAWFAEETAAVERAVDSLTTRLEKLEAK,not soluble
5,MSLNTREKYLSNVNRLVIKVGSSTLTHPSGLLNFYKIEHIVRQIADLHNQGIKVILVSSGAIGAGIGKLRLKERPKTIPEKQAAAAVGQGVLMHTYEKLFAEYGQIVGQILITREDLSSKKRVVNVQNTFSALLDHGIIPIVNENDATVVEEIKFGDNDTLSARVASLIKADLLILLSDIDGLYDSNPAVNKNAVLIDTVNEVNEEVKASAGGAGSKLGTGGMATKIRAAEIATENGISMVIANGEKQEAIRNILNFENEGTLFIPKNKEGHHHHHH,soluble
6,MIQLGGYKPRLSLHNSLFRALVSKQGGILNDQLKQAEFIFHNVVTTGLEVQKDIYSGLIWLHSCQDEVDIGRINSLREEMKKAGFQESKEVVVSLLRAYAKEGGVEEVERTWLELLDLDCGIPSQAFVYKIEAYSKVGDFAKAMEIFREMEKHIGGATMSGYHKIIEVLCKVQQVELVETLMKEFEESGKKPLLPSFIEIAKMYFDLGLHEKLEMAFVQCLEKCQPSQPIYNIYLDSLTKIGNLEKAGDVFNEMKNNGTINVSARSCNSLLKGYLDCGKQVQAERIYDLMRMKKYEIEPPLMEKLDYILSLKKKEVKKRPFSMKLSKDQREVLVGLLLGGLQIESDKEKKSHMIKFEFRENSQAHLVLKQNIHDQFREWLHPLSNFQEDIIPFEFYSVPHSYFGFYAEHYWPKGQPEIPKLIHRWLSPHSLAYWYMYSGVKTSSGDIILRLKGSLEGVEKVVKALQAKSMECRVKKKGKVFWIGLQGTNSALFWKLIEPHVLENLKEHLKPASESLDNVKEAEEQSINFKSNSDHSDDCVNSEAHFY,not soluble
7,MGHHHHHHSHDTISHQLEWRSLKSQETTGAGEDVEKQEQLLHCWWDCKLVQPLRKSVWQFLRNLELEIPFDPAIPLLGRYPKDYKSCCYKDTCTRMFIAALFTIAKTWNQPKCPTTIDWIKKMWHIYTMEYYAAIKNDEFMSFVGTWMKLETIILSKLSQGQ,not soluble
8,MAHHHHHHMGKKAEFARSRFKEVRQKREERMQRSRTERDRRHGIDKLERKIGKVVVQRPLPNEAQQALLLAQFAQACRLVAPSTDMCILMRHYAKVAEAAEQKSKSTTMVTTSAPSAKSTTRKRKRDEAEEEEEEAPAAGATFLDTVADALLQTQNAPAVIEEAAASAKDGENALDDDDDDDDTVTVLQDILQDDNGRRVVATLLASLNAVHSSKCEAVAKAVLEQFEENEHLPQHHVACRVMSALAQFGSDPTRQGVLNLLRQRSTTIEGVERLLSDRHTAGTIEQLLKSYSRETAAWLCEALSLSTPVTSPSAAEAGGKKKKAAKQRDAAAEETASGERITTEKLMELVNGPVSGQVLLQLLHTDARRELLKRLPIVELLRSKRGTTFLTQLLMSTASVASSKGDEGREAEAVALFSDVLERLGNDLGEMAIDKRANFVVQALIQLLPAMGPQSAKQLERLERGLGGAAGISALVAHGNGVHVVLSLIDAALTLSSESAVEGLAEQLVTRQNVTDLLYHKHGSLVVRRLMPLISRKASKVGRLLQGMVEQDFSNLVYTEAGNLVVTAYLTALGKSGASLLAQKLAGGEELLSMCRSPYASHVVFTLFELVDPITHTLLCNALKAHVLPLSIHVNGRFIVEKMIAASRDVRESVSRQFLSLAQERGTQHVLCALLARMDARGKQACVEKTIMPNLTALATHQCGSIVLQKLMQAEPTVLSAVRQRLSANSLVRSDLAQNFFGKFVVQIAQQPEQEQPQ,soluble
9,MSLSTNLITTGIGTEQLEQLLSEYFPTYQISRIDRDSTGRKGALEHHLNAIQTGKSQILIGTQMLAKGHHFPNVTLVALVNVDSALFSTDFRAEERLAQLYLQVAGRAGRAEKTGEVVLQTHYPDHPLLKCLLKDGYNAFAEEALKMRQVMALPPFTAQVLFRATGKQSDKVEHLLQNLTAYFQHKSVELGIEGIQISPPFSAIVAKKAGYYRWLLLIQHQSRSAIQQLLNVFDQEKSALNLPANIRLSLDVDPYDMSEGHHHHHH,not soluble
10,MGSDKIHHHHHHMQLSHSLRLMGTTIDIQINSKNAQKQIREVIELLELYKNRFSANDFNSELMAINNNAGIKPIQVHPDLFELITIGKEHSLARPSNLNIAIGPLVQTWRIGFSDAKLPSPSEISEAMILSDPTHILLDSNKQSVFLNQIGMKIDLGALAKGYIADKIMTYLKNEMIDSAIINLGGNVLVHGDNPNRSEGYWVIGIQHPKKKRGKNIGTVKIKNQSVVTSGTYERRLIIDDKEYHHIFDRQTGYPIQTEMASISIVSKQSVDCEIWTTRLFGLSIKEALDILNAVSYIEGIIITKDDRIYLSDGLKHHFQLFYH,not soluble
11,MGSDKIHHHHHHVIGKLTLDQLRVLVAVADTGSFTAASQAVGRAQSAVSQMMAALENAQGVQLFDRSSYRPMLTEAGRVLVAQARTTLAGASRFEAMAEHMRSGVEAELALAIDPLVPSAPFMQGLRDLSARYPDLSVSFSTEGLGGSLRRLRDGSASLGICTLLPTVPDDVVAYPLLQTAMTPVVAGNHPLASQDGPLQRGDLEPHVQLVLSDPVEPSGPNYGLTSARLWRFADLNRRLDFLLGGFGWCRMPEHLVADALADGRLVALDIKNDNAPQDGLPIYAAHARDRALGPAGRWFLDAMRECMAAA,not soluble
12,MNPERSERIEIPVLPLRDVVVYPHMVIPLFVGREKSIRCLEAAMDHDKKIMLVAQKEASTDEPGVNDLFTVGTVASILQMLKLPDGTVKVLVEGLQRARISALSDNGEHFSAKAEYLESPTIDEREQEVLVRTAISQFEGYIKLNKKIPPEVLTSLNSIDDPARLADTIAAHMPLKLADKQSVLEMSDVNERLEYLMAMMESEIDLLQVEKRIRNRVKKQMEKSQREYYLNEQMKAIQKELGEMDDAPDENEALKRKIDAAKMPKEAKEKAEAELQKLKMMSPMSAEATVVRGYIDWMVQVPWNARSKVKKDLRQAQEILDTDHYGLERVKDRILEYLAVQSRVNKIKGPILCLVGPPGVGKTSLGQSIAKATGRKYVRMALGGVRDEAEIRGHRRTYIGSMPGKLIQKMAKVGVKNPLFLLDEIDKMSSDMRGDPASALLEVLDPEQNVAFSDHYLEVDYDLSDVMFVATSNSMNIPAPLLDRMEVIRLSGYTEDEKLNIAKRHLLPKQIERNALKKGELTVDDSAIIGIIRYYTREAGVRGLEREISKLCRKAVKQLLLDKSLKHIEINGDNLHDYLGVQRFDYGRADNENRVGQVTGLAWTEVGGDLLTIETACVPGKGKLTYTGSLGEVMQESIQAALTVVRARAEKLGINPDFYEKRDIHVHVPEGATPKDGPSAGIAMCTALVSCLTGNPVRADVAMTGEITLRGQVLPIGGLKEKLLAAHRGGIKTVLIPFENKRDLEEIPDNVIADLDIHPVKRIEEVLTLALQNEPSGMQVVTAK,not soluble
13,MRIVTAAVMASTLAVSSLSHAAEVGSGDNWHPGEELTQRSTQSHMFDGISLTEHQRQQMRDLMQQARHEQPPVNVSELETMHRLVTAENFDENAVRAQAEKMANEQIARQVEMAKVRNQMYRLLTPEQQAVLNEKHQQRMEQLRDVTQWQKSSSLKLLSSSNSRSQMAGDPLEHHHHHH,not soluble
14,SAMAQKEEGHEAAAAEAKKETDLAHVDQVETFVGKEKYYVVKGTDKKGTALYVWVPADKKAKILSKEAKEGISEDKAAKIIKDEGLVSKQKEVHLAREGNVLLWEVTYLDKEGQYSLSYVDFTTGKILKNITP,soluble
15,MSFVSVLSIAHKKGRGWPLLDMEIRELCCMLHKVFYLVRCTGIGFDFFRKFVLILFLAYTFKTIDSMASERKLKKQITGAISEVFTDAFLLKLFVKEEKNAEVETILNRILQLQDTTIAKIRCNDGKHNPALVKKYYRRLVDDFKEELSEIVKSISACASDN,not soluble
16,MTTSGHACPVPAVNGHMTHYPATPYPLLFPPVIGGLSLPPLHGLHGHPPPSGCSTPSPATIETQSTSSEELVPSPPSPLPPPRVYKPCFVCQDKSSGYHYGVSACEGCKGFFRRSIQKNMIYTCHRDKNCVINKVTRNRCQYCRLQKCFEVGMSKESVRNDRNKKKKETSKQECTESYEMTAELDDLTEKIRKAHQETFPSLCQLGKYTTNSSADHRVRLDLGLWDKFSELATKCIIKIVEFAKRLPGFTGLTIADQITLLKAACLDILILRICTRYTPEQDTMTFSDGLTLNRTQMHNAGFGPLTDLVFTFANQLLPLEMDDTETGLLSAICLICGDRQDLEEPTKVDKLQEPLLEALKIYIRKRRPSKPHMFPKILMKITDLRSISAKGAERVITLKMEIPGSMPPLIQEMLENSEGHEPLTPSSSGNTAEHSPSISPSSVENSGVSQSPLVQ,soluble
17,MDPELQAIREARLAQLKNNSGGTNGDRNSGANNGGGENSAPVGAAIANFLEPQALERLSRVALVRRDRAQAVETYLKKLIATNNVTHKITEAEIVSILNGIAKQQNSQNNSKIIFERKDFSEDLNSFDKQNAKN,not soluble
